Reference: patent US20230073067A1 (INSTITUTE OF MICROBIOLOGY CHINESE ACADEMY OF SCIENCE, published 2023)

Biological target: 2019-nCoV RBD protein with C-terminal hexa-His tag (2019-nCoV (SARS-CoV-2), UniProt P0DTC2 319-541)
Assay: SPR, Biacore 8K, antibody captured on protein A chip, RBD as analyte
Experimental: Surface plasmon resonance analysis was performed using Biacore 8K (Biacore Inc.).
Binding kinetic constants were calculated using BIAevaluation software 8K (Biacore, inc.) software.

B1: GH12 antibody (antibody, human IgG1, lambda, V domains shown)
VH: EVQLVESGGGLVQPGGSLRLSCAASGFTFSSYWMSWVRQAPGKGLEWVANIKQDGSEKYYVDSVKGRFTISRDNAKNSLYLQMNSLRAEDTAVYYCTRAGWVRGAFDIWGQGTMVTVSS
VL: NFMLTQPHSVSESPGKTVTISCTGSSGSIASNYVQWYQQRPGSAPTTVIYEDNQRPSGVPDRFSGSIDSSSNSASLTISGLKTEDEADYYCQSYDSSNLWVFGGGTKLTVLG
notes: also called human antibody GH12
Kd: 5.87 nM
koff: 0.0173 s⁻¹
kon: 2.95e+06 M⁻¹ s⁻¹
